In paper PMC11161652, “ASXLs binding to the PHD2/3 fingers of MLL4 provides a mechanism for the recruitment of BAP1 to active enhancers” (Nature Communications, 2024) one finds Kd data, which are given here for one molecule.

What all share (test): other fluorescence titration; tryptophan fluorescence, 25 °C; 1.0 µM MLL4 PHD2/3 or MLL3 PHD2/3 with increasing peptide; excitation 295 nm; 20 mM Tris pH 7.2, 150 mM NaCl, 1 mM TCEP, 0.02% Tween20; average of three measurements
What all share (conditions): both partners purified

Experiment [1] has as its target T1, PHD2 and PHD3 fingers of human MLL3 (aa 342-439) (human, UniProt Q8NEZ4 342-439).
T1 construct: PHD2 and PHD3 fingers of human MLL3 (KMT2C), aa 342-439; 15N-labelled for NMR titrations; also used unlabelled as the titrant against MLL3 PHD4; also called MLL3_(PHD2/3); MLL3 PHD2/3; source: E. coli BL21-CodonPlus, purified (glutathione agarose, PreScission cleavage; unlabeled proteins also SEC)
T1 sequence (looked up): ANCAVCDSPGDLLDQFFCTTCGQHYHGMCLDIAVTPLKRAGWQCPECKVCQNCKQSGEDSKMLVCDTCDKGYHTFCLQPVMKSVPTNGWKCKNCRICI

Experiment [2] concerns the target T2, MLL4_(PHD2/3) E272K (human, UniProt O14686 227-324, E272K).
T2 construct: human MLL4 (KMT2D), aa 227-324; E272K is said to be found in cancers (Cosmic); source: E. coli BL21-CodonPlus, purified as WT
T2 sequence (looked up): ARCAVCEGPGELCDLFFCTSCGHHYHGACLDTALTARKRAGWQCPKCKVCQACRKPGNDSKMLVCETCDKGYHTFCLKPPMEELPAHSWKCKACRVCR

The target in experiment [3] is T3, MLL4_(PHD2/3) S286A (human, UniProt O14686 227-324, S286A).
T3 construct: human MLL4 (KMT2D), aa 227-324; source: E. coli BL21-CodonPlus, purified as WT
T3 sequence (looked up): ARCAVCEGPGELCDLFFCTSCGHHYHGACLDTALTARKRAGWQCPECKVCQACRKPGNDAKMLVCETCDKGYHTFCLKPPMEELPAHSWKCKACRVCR

B1: ASXL2 peptide (residues 650-670 of ASXL2) (peptide, UniProt Q76L83 650-670, looked up)
peptide: NRTGARTLADIKAKAQLVKAQ
notes: also called ASXL2 (aa 650-670); MBH of ASXL2; source: synthetic peptide (SynPeptide)
For orientation: Kd means the constant that tells how readily two partners part at equilibrium. B1: the Kd in experiment [1] worked out at 1400 nM; in experiment [2] it was 28000 nM; in experiment [3], 800 nM.
